{
  "source": "paper PMC10953559",
  "target": "GroEL14 as used with the substrate proteins NanA and DapA (E. coli) (UniProt P0A6F5)",
  "assay": "native MS; CE-MS; 6 µM GroEL14 with 6 or 12 µM substrate monomers, denatured in 6.5 M GuHCl and 9 mM DTT and diluted 30-fold into GroEL14 buffer pH 7.5 (200 mM GuHCl, 0.3 mM DTT left); no ATP, no GroES; BGE 50 mM ammonium acetate pH 6.7",
  "note": "Where “and” joins values, the source holds several entries; their conditions need not be identical. Equal entries are not always repeated.",
  "data": [
    {"substance": "N-acetyl neuraminic acid aldolase, denatured monomer (NanA) (from UniProt P0A6L4 2-297) (enzyme)", "values": [
      {"measurement": "share of the total signal intensity, GroEL14-NanA1 complex", "value": 10, "unit": "%"},
      {"measurement": "share of the total signal intensity, GroEL14-NanA2 complex", "value": 90, "unit": "%"},
      {"measurement": "stoichiometry N (NanA monomers per GroEL14)", "value": "1 and 2"}
    ]}
  ]
}
